Residue numbers refer to the chain shown, from its start.

The source of these data is US20230099801A1, “RESTORATION OF T CELL ACTIVITY VIA THE CD39/CD73 AXIS” (INNATE PHARMA, priority 2017, published 2023).

Experiment [1] has as its target T1, soluble recombinant human CD39 protein (Homo sapiens, UniProt P49961).
T1 construct: made in house; host or cells: CHO cells
T1 sequence (P49961 with tags, fused parts or gaps): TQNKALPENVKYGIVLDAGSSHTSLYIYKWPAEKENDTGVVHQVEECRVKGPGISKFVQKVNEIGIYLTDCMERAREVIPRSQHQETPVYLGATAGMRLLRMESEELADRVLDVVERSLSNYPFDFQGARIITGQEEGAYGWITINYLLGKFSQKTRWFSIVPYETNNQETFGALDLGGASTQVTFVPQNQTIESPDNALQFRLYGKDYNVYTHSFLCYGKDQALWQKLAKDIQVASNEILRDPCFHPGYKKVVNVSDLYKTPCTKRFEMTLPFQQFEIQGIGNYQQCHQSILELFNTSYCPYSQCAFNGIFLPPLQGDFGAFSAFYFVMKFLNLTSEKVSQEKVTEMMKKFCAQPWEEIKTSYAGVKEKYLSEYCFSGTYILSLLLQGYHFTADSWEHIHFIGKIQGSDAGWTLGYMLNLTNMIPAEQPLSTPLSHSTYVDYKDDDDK
The experiment is described as follows: Inhibition of the enzymatic (ATPase) activity of soluble CD39, Cell Titer Glo. Particulars: 400 ng/ml soluble CD39, 20 μM ATP. It is filed as biochemical. As for the experimental part: The ability of an antibody to inhibit soluble recombinant human CD39 protein can be tested by detecting ATP after incubating test antibody with soluble CD39 protein (e.g., the CD39 protein having the amino acid sequence of SEQ ID NO: 5, as produced in Example 1, optionally further comprising a purification tag or other functional or non-functional non-CD39-derived amino acid sequence). See, e.g., Example 1. Briefly, ATP can be quantified using the Cell Titer Glo™ (Promega), in an assay in which dose ranges of test antibody are incubated with soluble recombinant human CD39 protein described in Example 1, for 1 hour at 37° C. 20 μM ATP are added to the plates for 30 additional minutes at 37° C. before addition of CTG reagent. Emitted light is quantified using an Enspire™ luminometer after a short incubation period of 5 min in the dark.
The inhibition by antibodies of the enzymatic activity of soluble CD39 protein produced was evaluated using Cell Titer Glo™ (Promega, reference G7571) that allows assessment of ATP hydrolysis through use of a reagent that generates a luminescent signal proportional to the amount of ATP present. In this way, inhibition of the soluble-CD39-mediated ATP hydrolysis can be assessed. Briefly, dose ranges of anti-CD39 antibodies from 100 μg/ml to 6×10^−3 μg/ml were incubated with 400 ng/ml of soluble recombinant human CD39 protein having the amino acid sequence described in the Methods section (SEQ ID NO: 54), for 1h at 37° C. 20 μM ATP was added to the plates for 30 additional minutes at 37° C. before addition of CTG (Cell Titer Glo) reagent. Emitted light was quantified using an Enspire™ luminometer after a short incubation period of 5 min in the dark. Anti-CD39 antibody efficacy was determined by comparing emitted light in presence of antibody with ATP alone (maximal light emission) and ATP together with soluble CD39 protein (minimal light emission).
On the technique in general: In ATP-based viability assays light output follows the ATP content of the culture.

For experiment [2], the target named is T2, CD39 mutant 11 (Homo sapiens, UniProt P49961, DUP378-378/E375A/K376G/L372K/N371K/V377S).
T2 construct: expressed in transfected cells; host or cells: HEK-293T cells
T2 sequence (P49961 with tags, fused parts or gaps N371K/L372K/E375A/K376G/DUP378-378): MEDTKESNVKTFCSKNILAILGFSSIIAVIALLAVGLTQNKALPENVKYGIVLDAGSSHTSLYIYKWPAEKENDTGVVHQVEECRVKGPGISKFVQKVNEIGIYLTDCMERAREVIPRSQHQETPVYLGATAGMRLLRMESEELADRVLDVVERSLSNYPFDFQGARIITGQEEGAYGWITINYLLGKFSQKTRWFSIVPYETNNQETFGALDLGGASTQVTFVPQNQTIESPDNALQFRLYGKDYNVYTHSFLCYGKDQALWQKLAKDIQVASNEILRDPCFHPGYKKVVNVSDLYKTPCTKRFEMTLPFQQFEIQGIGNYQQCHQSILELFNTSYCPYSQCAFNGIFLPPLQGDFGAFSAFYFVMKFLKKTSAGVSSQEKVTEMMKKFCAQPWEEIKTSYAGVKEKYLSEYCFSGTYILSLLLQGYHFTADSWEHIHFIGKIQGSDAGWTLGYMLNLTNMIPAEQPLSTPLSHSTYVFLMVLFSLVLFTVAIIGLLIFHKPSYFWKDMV
The experiment is described as follows: Epitope mapping by flow cytometry on Hek-293T cells expressing CD39 mutant 11. The following applies: insertion 377V, V377S (Table 1). The class given is binding. As for the experimental part:
(§1) CD39 mutants were generated by PCR. The sequences amplified were run on agarose gel and purified using the Macherey Nagel PCR Clean-Up Gel Extraction kit (reference 740609). The purified PCR products generated for each mutant were then ligated into an expression vector, with the ClonTech InFusion system. The vectors containing the mutated sequences were prepared as Miniprep and sequenced. After sequencing, the vectors containing the mutated sequences were prepared as Midiprep using the Promega PureYield™ Plasmid Midiprep System. HEK293T cells were grown in DMEM medium (Invitrogen), transfected with vectors using Invitrogen's Lipofectamine 2000 and incubated at 37° C. in a CO2 incubator for 48 hours prior to testing for transgene expression. The targeted amino acid mutations in the table 1 below are shown using numbering of SEQ ID NO: 2.
(§2) In order to define the epitopes of anti-CD39 antibodies, we designed CD39 mutants defined by substitutions of amino acids exposed at the molecular surface over the surface of CD39.
(§3) Mutants were transfected in Hek-293T cells, as shown in the table 1, using numbering of SEQ ID NO: 2. Dose-ranges of test antibodies (10-2.5-0.625-0.1563-0.0391-0.0098-0.0024-0.0006 μg/ml) are tested on the 20 generated mutants by flow cytometry.
Background: In flow cytometry, cells or beads pass a laser one at a time.

The subject of experiment [3] is other CD39 mutants of Table 1. The experiment is described as follows: Epitope mapping by flow cytometry on the other CD39 mutants of Table 1. The class given is binding, human. Here is the method: as §1, §2
Mutant 5 contains amino acid substitutions at residues Q96, N99, E143 and R147.
as §3

The target of experiment [4] is T3, CD73 mutants having a substitution at residue K136 (Homo sapiens, UniProt P21589, K136A).
T3 sequence (P21589 27-549 K136A): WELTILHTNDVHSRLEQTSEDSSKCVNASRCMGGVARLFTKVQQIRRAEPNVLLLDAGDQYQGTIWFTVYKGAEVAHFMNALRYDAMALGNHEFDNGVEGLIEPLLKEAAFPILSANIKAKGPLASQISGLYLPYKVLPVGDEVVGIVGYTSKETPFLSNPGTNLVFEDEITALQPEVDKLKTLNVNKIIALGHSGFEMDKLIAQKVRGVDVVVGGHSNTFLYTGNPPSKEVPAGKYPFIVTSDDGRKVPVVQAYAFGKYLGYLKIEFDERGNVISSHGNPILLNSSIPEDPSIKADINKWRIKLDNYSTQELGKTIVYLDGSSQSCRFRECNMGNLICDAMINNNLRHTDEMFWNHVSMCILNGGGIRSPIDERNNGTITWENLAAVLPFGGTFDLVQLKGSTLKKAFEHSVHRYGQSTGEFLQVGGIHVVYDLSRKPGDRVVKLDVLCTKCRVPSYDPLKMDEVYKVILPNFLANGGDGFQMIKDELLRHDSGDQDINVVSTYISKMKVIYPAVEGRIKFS
The following applies: cited from earlier work.

For experiment [5], the target named is T4, CD73 mutants having substitutions at residues A99, E129, K133, E134 and A135 (Homo sapiens, UniProt P21589, A135S/A99S/E129A/E134N/K133A).
T4 sequence (P21589 27-549 A99S/E129A/K133A/E134N/A135S): T3 sequence (P21589 27-549 K136A) with A73S, E103A, K107A, E108N, A109S, A110K
Particulars: cited from earlier work.

Experiment [6] deals with CD73 mutants having a substitution at residues K97, E125, Q153 and K330. Particulars: cited from earlier work.

B1: I-399: anti-CD39 antibody, VH SEQ ID NO: 30, VL SEQ ID NO: 31 (antibody, listed as Mus musculus, V domains shown)
VH: PVQLQQPGAEVVMPGASVKLSCKASGYTFTSFWMNWMRQRPGQGLEWIGEIDPSDFYTNSNQRFKGKATLTVDKSSSTAYMQLSSLTSEDSAVYFCARGDFGWYFDVWGTGTSVTVSS
VL: EIVLTQSPTTMTSSPGEKITFTCSASSSINSNYLHWYQQKPGFSPKLLIYRTSNLASGVPTRFSGSGSGTSYSLTIGTMEAEDVATYYCQQGSSLPRTFGGGTKLEIK
B1: the “inhibition of the enzymatic (ATPase) activity of soluble CD39 protein” value in experiment [1] was “showed inhibition”. Besides, the “binding to cells expressing mutant 11 of CD39” value in experiment [2] is reported as “loss of binding”. Also, in experiment [3], the “binding to any other mutant of the 20 CD39 mutants” value was “without loss of binding”.

B2: 3C12: anti-CD73 antibody, VH and VL of SEQ ID NOS: 44 and 45 (antibody, listed as Mus musculus, V domains shown)
VH: QIQLQQSGPELVKPGASVKVSCKASGYAFASYNMNWVKQSHGKSLDWIGYIDPYNGGSSYNLTFKGKATLTVDKSSTTAYMHLNSLTSEDSAVYYCARGYGNYKAWFAYWGQGTLVTVSAASTKGP
VL: DVVMTQTPKFLLVSAGDRVTITCKASQSVSNDVAWYQQKPGQSPKLLIYYASTRYTGVPDRFTGSGYGTDFTFTISTVQAEDLAVYFCQQDYSSLTFGAGTKLELKRTVAAP
In the case of B2, the “binding to CD73 mutants having a substitution at residue K136” value (shortened to “binding … at residue K136”) in experiment [4] is “lose binding”. In experiment [5], the “binding to CD73 mutants having substitutions at residues A99, E129, K133, E134 and A135” value (from here on “binding … E134 and A135”) is “lose binding”. The “binding to CD73 mutants having a substitution at residues K97, E125, Q153 and K330” value (shortened to “binding … Q153 and K330”) in experiment [6] was “lose binding”.

B3: 8C7: anti-CD73 antibody, VH and VL of SEQ ID NOS: 42 and 43 (antibody, listed as Mus musculus, V domains shown)
VH: B2 VH with Q1E, I2V
VL: B2 VL with D1S, V2I, Q6P
Take B3: in experiment [4], the “binding … at residue K136” value is “lose binding”. The “binding … E134 and A135” value in experiment [5] was “lose binding”. Further, in experiment [6], the “binding … Q153 and K330” value is “lose binding”.

B4: 11E1: anti-CD73 antibody, VH and VL of SEQ ID NOS: 40 and 41 (antibody, listed as Mus musculus, V domains shown)
VH: EIQLQQSGPELVKPGASVKVSCKASGYAFTSYNMYWVKQSHGKSLEWIGYIDPYNGGTSYNQKFKGKATLTVDKSSSTAYMHLNSLTSEDSAVYYCARGYGNYKAWFAYWGQGTLVTVSA
VL: DAVMTQTPKFLLVSAGDRVTITCKASQSVTNDVAWYQQKPGQSPKLLIYYASNRYTGVPDRFTGSGYGTDFTFTISTVQAEDLAVYFCQQDYSSLTFGAGTKLELK
For the molecule B4, in experiment [4], the “binding … at residue K136” value is reported as “lose binding”. The “binding … E134 and A135” value in experiment [5] is “lose binding”. In experiment [6], the “binding … Q153 and K330” value was “lose binding”.

B5: 6E1: anti-CD73 antibody, VH and VL of SEQ ID NOS: 3 and 4 (WO2016/055609) (antibody, listed as Mus musculus, V domains shown)
VH: B4 VH with I2F, S44R, T58S, S85N, G101N
VL: B4 VL with D1S, A2I, V78M
With B5, the “binding … at residue K136” value in experiment [4] is given as “lose binding”. Moreover, the “binding … E134 and A135” value in experiment [5] is “lose binding”. Moreover, in experiment [6], the “binding … Q153 and K330” value is recorded as “lose binding”.
